Results as given in patent US20240002498A1 (TENEOBIO, published 2024).
Numbering of substitutions follows the chain as printed. Values belong to the binder of their own block, whether it stands above or below them.

Experiments:
[1] = biological target: T1, human Folate Receptor Alpha (FOLR1) on cells (human, UniProt P15328 25-234); experiment: flow cytometry, CHO cells stably expressing human FOLR1
T1 construct: whole, on cells; Endogenous on IGROV-1, OVCAR-3, SKOV-3, HT-29 cells; transfected on CHO cells; the cell is named under assay; also called FRα; FRa

[2] = biological target: T2, cyno FOLR1 on CHO cells (cyno (Cynomolgus macaque), UniProt A0A2K5U044 25-234); experiment: flow cytometry, CHO cells stably expressing cyno FOLR1
T2 construct: whole, on cells; also called cyFOLR1
T2 sequence (A0A2K5U044 entry or part of it): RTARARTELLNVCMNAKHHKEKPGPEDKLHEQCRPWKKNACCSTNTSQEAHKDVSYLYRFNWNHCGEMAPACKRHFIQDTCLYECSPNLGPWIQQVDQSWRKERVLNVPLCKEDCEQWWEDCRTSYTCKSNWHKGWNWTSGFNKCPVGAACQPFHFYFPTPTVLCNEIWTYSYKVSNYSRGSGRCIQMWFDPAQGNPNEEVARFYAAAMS

T1 sequence (P15328 25-234): as the sequence (A0A2K5U044 entry or part of it) above, with T2I, R4W, K37R, P146A, Y171H counted along it

fold over background MFI [1]: 1570 fold over background
fold over background MFI [2]: 21.8 fold over background
B1: anti-FOLR1 heavy chain antibody (HCAb, UniAb) clone ID 358590 (antibody, V domains shown)
VH: EVQLVESGGGLVQPGGSLRLSCAASGFTFSSYSMNWVRQAPGKGLEWVSYISSSSDTIEYADSVKGRFTISRDNAKNSLYLQMNSLRDEDTAVYYCASVGLDFDYRGQGTLVTVSS
notes: Heavy chain-only antibody (no light chain), F18 family

fold over background MFI [1]: 1280 fold over background
fold over background MFI [2]: 535 fold over background
B2: anti-FOLR1 heavy chain antibody (HCAb, UniAb) clone ID 358608 (antibody, V domains shown)
VH: B1 VH with T28S, N35K, V48I, S53G
notes: as for B1

fold over background MFI [1]: 920 fold over background
fold over background MFI [2]: 3 fold over background
B3: anti-FOLR1 heavy chain antibody (HCAb, UniAb) clone ID 358647 (antibody, V domains shown)
VH: B1 VH with T28S, V48I, S53G, D88A
notes: as for B1

fold over background MFI [1]: 980 fold over background
fold over background MFI [2]: 717 fold over background
B4: anti-FOLR1 heavy chain antibody (HCAb, UniAb) clone ID 358676 (antibody, V domains shown)
VH: B1 VH with T28S, N35K, D88A
notes: as for B1

fold over background MFI [1]: 1470 fold over background
fold over background MFI [2]: 729 fold over background
B5: anti-FOLR1 heavy chain antibody (HCAb, UniAb) clone ID 358664 (antibody, V domains shown)
VH: B1 VH with T28S, N35K, E46D
notes: as for B1

fold over background MFI [1]: 1410 fold over background
fold over background MFI [2]: 21.7 fold over background
B6: anti-FOLR1 heavy chain antibody (HCAb, UniAb) clone ID 358656 (antibody, V domains shown)
VH: B1 VH with T28S
notes: as for B1

fold over background MFI [1]: 926 fold over background
fold over background MFI [2]: 590 fold over background
B7: anti-FOLR1 heavy chain antibody (HCAb, UniAb) clone ID 358655 (antibody, V domains shown)
VH: B1 VH with N35K, V48I, S53G, S85G
notes: as for B1

fold over background MFI [1]: 1670 fold over background
fold over background MFI [2]: 933 fold over background
B8: anti-FOLR1 heavy chain antibody (HCAb, UniAb) clone ID 358624 (antibody, V domains shown)
VH: B1 VH with T28S, N35K, E89D
notes: as for B1

fold over background MFI [1]: 1710 fold over background
fold over background MFI [2]: 1060 fold over background
B9: anti-FOLR1 heavy chain antibody (HCAb, UniAb) clone ID 358626 (antibody, V domains shown)
VH: B1 VH with Q13K, T28S, N35K, E89D
notes: as for B1

fold over background MFI [1]: 1960 fold over background
fold over background MFI [2]: 1340 fold over background
B10: anti-FOLR1 heavy chain antibody (HCAb, UniAb) clone ID 358596 (antibody, V domains shown)
VH: B1 VH with N35K, S52D, D56S, T57I
notes: as for B1

fold over background MFI [1]: 402 fold over background
fold over background MFI [2]: 1.2 fold over background
B11: anti-FOLR1 heavy chain antibody (HCAb, UniAb) clone ID 358393 (antibody, V domains shown)
VH: EVQLVESGGGLVQPGGSLRLSCAASGFTFSSYSMNWARQAPGKGLEWVSYISSSSSSIYYADSVKGRFTISRDNAKNSLYLQMNSLRAEDTAVYYCARDVTSGIAAAGSAFNIRGQGTLVTVSS
notes: Heavy chain-only antibody (no light chain), F14 family

fold over background MFI [1]: 1730 fold over background
fold over background MFI [2]: 360 fold over background
B12: anti-FOLR1 heavy chain antibody (HCAb, UniAb) clone ID 358396 (antibody, V domains shown)
VH: B11 VH with Q13K, A37V, Y50S, S57Y, Y95F
notes: as for B11

fold over background MFI [1]: 1870 fold over background
fold over background MFI [2]: 2090 fold over background
B13: anti-FOLR1 heavy chain antibody (HCAb, UniAb) clone ID 358456 (antibody, V domains shown)
VH: B11 VH with Q13K, T28I, A37V, Y50S, S54G, S57Y, Y95F
notes: as for B11

fold over background MFI [1]: 2150 fold over background
fold over background MFI [2]: 2580 fold over background
B14: anti-FOLR1 heavy chain antibody (HCAb, UniAb) clone ID 358462 (antibody, V domains shown)
VH: B11 VH with A37V, Y50S, S54G, S57Y
notes: as for B11

fold over background MFI [1]: 427 fold over background
fold over background MFI [2]: 1.1 fold over background
B15: anti-FOLR1 heavy chain antibody (HCAb, UniAb) clone ID 358478 (antibody, V domains shown)
VH: B11 VH with V12I, T28I, A37V, S57Y
notes: as for B11

fold over background MFI [1]: 1840 fold over background
fold over background MFI [2]: 1.7 fold over background
B16: anti-FOLR1 heavy chain antibody (HCAb, UniAb) clone ID 358452 (antibody, V domains shown)
VH: B11 VH with A37V, S49A, Y50S, S54G, S57D
notes: as for B11

fold over background MFI [1]: 277 fold over background
fold over background MFI [2]: 331 fold over background
B17: anti-FOLR1 heavy chain antibody (HCAb, UniAb) clone ID 358397 (antibody, V domains shown)
VH: B11 VH with Q13K, G15R, A23E, A37V, Y50S, S54G, S57Y
notes: as for B11

fold over background MFI [1]: 2140 fold over background
fold over background MFI [2]: 1200 fold over background
B18: anti-FOLR1 heavy chain antibody (HCAb, UniAb) clone ID 358480 (antibody, V domains shown)
VH: B11 VH with Q13K, A37V, Y50S, S54G, S56T, S57Y
notes: as for B11

fold over background MFI [1]: 1500 fold over background
fold over background MFI [2]: 2080 fold over background
B19: anti-FOLR1 heavy chain antibody (HCAb, UniAb) clone ID 358418 (antibody, V domains shown)
VH: B11 VH with A37V, Y50S, S54G, S57Y, V93L
notes: as for B11

fold over background MFI [1]: 1600 fold over background
fold over background MFI [2]: 1.2 fold over background
B20: anti-FOLR1 heavy chain antibody (HCAb, UniAb) clone ID 358442 (antibody, V domains shown)
VH: B11 VH with Q13K, A37V, S57Y
notes: as for B11

fold over background MFI [1]: 1670 fold over background
fold over background MFI [2]: 314 fold over background
B21: anti-FOLR1 heavy chain antibody (HCAb, UniAb) clone ID 358468 (antibody, V domains shown)
VH: B11 VH with Q13K, A37V, Y50S, S57Y
notes: as for B11

fold over background MFI [1]: 1870 fold over background
fold over background MFI [2]: 1820 fold over background
B22: anti-FOLR1 heavy chain antibody (HCAb, UniAb) clone ID 358416 (antibody, V domains shown)
VH: B11 VH with Q13K, S33T, A37V, Y50S, S54G, S57Y
notes: as for B11

fold over background MFI [1]: 1900 fold over background
fold over background MFI [2]: 2300 fold over background
B23: anti-FOLR1 heavy chain antibody (HCAb, UniAb) clone ID 358441 (antibody, V domains shown)
VH: B11 VH with T28S, A37V, Y50S, S54G, S57Y, A88G
notes: as for B11

fold over background MFI [1]: 2010 fold over background
fold over background MFI [2]: 330 fold over background
B24: anti-FOLR1 heavy chain antibody (HCAb, UniAb) clone ID 358399 (antibody, V domains shown)
VH: B11 VH with Q13K, A23V, A37V, Y50S, S57Y
notes: as for B11

fold over background MFI [1]: 2100 fold over background
fold over background MFI [2]: 6.4 fold over background
B25: anti-FOLR1 heavy chain antibody (HCAb, UniAb) clone ID 358464 (antibody, V domains shown)
VH: B11 VH with A37V, S57T
notes: as for B11

fold over background MFI [1]: 1760 fold over background
fold over background MFI [2]: 2260 fold over background
B26: anti-FOLR1 heavy chain antibody (HCAb, UniAb) clone ID 358420 (antibody, V domains shown)
VH: B11 VH with Q13K, A37V, Y50S, S54G, S57Y, K76N, Y95F
notes: as for B11

fold over background MFI [1]: 1270 fold over background
fold over background MFI [2]: 1.5 fold over background
B27: anti-FOLR1 heavy chain antibody (HCAb, UniAb) clone ID 358446 (antibody, V domains shown)
VH: B11 VH with Q13K, T28I, A37V, Y50S, S54G, S57Y, N74D, Y95F
notes: as for B11

fold over background MFI [1]: 1810 fold over background
fold over background MFI [2]: 497 fold over background
B28: anti-FOLR1 heavy chain antibody (HCAb, UniAb) clone ID 358413 (antibody, V domains shown)
VH: B11 VH with T28S, A37V, Y50S, S57Y, A75S, S78T
notes: as for B11

fold over background MFI [1]: 1600 fold over background
fold over background MFI [2]: 2090 fold over background
B29: anti-FOLR1 heavy chain antibody (HCAb, UniAb) clone ID 358466 (antibody, V domains shown)
VH: B11 VH with V12I, A37V, Y50S, S54G, S57Y
notes: as for B11
